# Changes are numbered by the printed parent chain. Names and notes keep the numbering of the source.
# T1: rabbit IL-6 (rabbit, UniProt Q9MZR1 27-241, limits assumed)
# T1 sequence (looked up): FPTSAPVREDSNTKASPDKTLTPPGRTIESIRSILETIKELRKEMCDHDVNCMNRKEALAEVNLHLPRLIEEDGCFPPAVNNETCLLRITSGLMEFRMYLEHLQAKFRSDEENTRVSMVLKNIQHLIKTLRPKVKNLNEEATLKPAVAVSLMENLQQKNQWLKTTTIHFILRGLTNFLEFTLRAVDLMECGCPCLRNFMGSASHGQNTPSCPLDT
# T2: dog IL-6 (dog, UniProt P41323 21-207)
# T2 construct: also called canine IL-6
# T2 sequence (looked up): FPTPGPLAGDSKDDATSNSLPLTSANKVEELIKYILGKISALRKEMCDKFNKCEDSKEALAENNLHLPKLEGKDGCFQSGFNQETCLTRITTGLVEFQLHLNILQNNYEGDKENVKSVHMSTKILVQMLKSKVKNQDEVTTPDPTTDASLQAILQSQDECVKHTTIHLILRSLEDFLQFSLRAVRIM
# T3: rat IL-6 (rat, UniProt P20607 25-211)
# T3 construct: also called rodent IL-6
# T3 sequence (looked up): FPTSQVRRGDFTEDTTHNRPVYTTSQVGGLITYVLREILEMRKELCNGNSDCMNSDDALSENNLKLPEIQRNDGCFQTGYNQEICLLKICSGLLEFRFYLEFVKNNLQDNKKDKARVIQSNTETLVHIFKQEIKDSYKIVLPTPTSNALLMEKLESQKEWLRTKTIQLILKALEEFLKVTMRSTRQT
# T4: mouse IL-6 (mouse, UniProt P08505 25-211)
# T4 construct: also called rodent IL-6
# T4 sequence (looked up): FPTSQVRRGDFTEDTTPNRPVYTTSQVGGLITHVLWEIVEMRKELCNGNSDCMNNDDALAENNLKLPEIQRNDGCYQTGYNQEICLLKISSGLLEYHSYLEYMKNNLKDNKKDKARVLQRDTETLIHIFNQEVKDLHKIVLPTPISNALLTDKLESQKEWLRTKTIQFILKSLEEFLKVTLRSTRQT
# B1: EBI-029 IgG2 (antibody)
# heavy: QVQLVQSGAEVKKPGSSVKVSCKASGYALSNYLIEWVRQAPGQGLEWMGVITPGSGTINYAQKFQGRVTITADESTSTAYMELSSLRSEDTAVYYCARSRWDPLYYYALEYWGQGTTVTVSSASTKGPSVFPLAPCSRSTSESTAALGCLVKDYFPEPVTVSWNSGALTSGVHTFPAVLQSSGLYSLSSVVTVPSSNFGTQTYTCNVDHKPSNTKVDKTVERKCCVECPPCPAPPVAGPSVFLFPPKPKDTLMISRTPEVTCVVVDVSHEDPEVQFNWYVDGVEVHNAKTKPREEQFNSTFRVVSVLTVVHQDWLNGKEYKCKVSNKGLPAPIEKTISKTKGQPREPQVYTLPPSREEMTKNQVSLTCLVKGFYPSDIAVEWESNGQPENNYKTTPPMLDSDGSFFLYSKLTVDKSRWQQGNVFSCSVMHEALHNHYTQKSLSLSPGK
# light: DIVMTQSPDSLAVSLGERATINCRASESVDNYGIPFMNWYQQKPGQPPKLLIYAASNRGSGVPDRFSGSGSGTDFTLTISSLQAEDVAVYYCQQSEEVPLTFGQGTKLEIKRTVAAPSVFIFPPSDEQLKSGTASVVCLLNNFYPREAKVQWKVDNALQSGNSQESVTEQDSKDSTYSLSSTLTLSKADYEKHKVYACEVTHQGLSSPVTKSFNRGEC
# notes: also called 018IgG2
# B2: EBI-031 (EBI-030 IgG2-H311A) (antibody)
# heavy: B1 heavy with A28V, S30P, I51T, S55G, H311A
# light: B1 light
# notes: also called EBI-030-H311A
# B3: EBI-029 IgG2-H311A (antibody)
# heavy: B1 heavy with H311A
# light: B1 light
# notes: also called EBI-029-H311A
# B4: EBI-030 IgG2 (antibody)
# heavy: B1 heavy with A28V, S30P, I51T, S55G
# light: B1 light
# B5: EBI-029 Fab variant I51T/S55G (Fab, V domains shown)
# VH: QVQLVQSGAEVKKPGSSVKVSCKASGYALSNYLIEWVRQAPGQGLEWMGVTTPGGGTINYAQKFQGRVTITADESTSTAYMELSSLRSEDTAVYYCARSRWDPLYYYALEYWGQGTTVTVSS
# VL: DIVMTQSPDSLAVSLGERATINCRASESVDNYGIPFMNWYQQKPGQPPKLLIYAASNRGSGVPDRFSGSGSGTDFTLTISSLQAEDVAVYYCQQSEEVPLTFGQGTKLEIKR
# B6: 018 Fab (Fab, V domains shown)
# VH: B5 VH with T51I, G55S
# VL: B5 VL
# notes: Fab with CK and IgG1 CH1 domains; also called Fab fragment of the h64-1.4 humanized antibody
# B7: h64 IgG (humanized 64, human IgG1) (antibody, V domains shown)
# VH: B5 VH with L29F, T51I, G55S
# VL: DIVMTQSPDSLAVSLGERATINCRASESVDNYGISFMNWYQQKPGQPPKLLIYAASNQGSGVPDRFSGSGSGTDFTLTISSLQAEDVAVYYCQQSKEVPLTFGQGTKLEIK
# notes: Expressed as inline fusions with the human IgG1 constant domains; also called the original humanized molecule; original h64 antibody
# B8: EBI-030 Fab (A28V/S30P/I51T/S55G) (Fab, V domains shown)
# VH: B5 VH with A28V, S30P
# VL: B5 VL
# notes: IgG1 Fab; also called A28V/S30P/I51T/S55G (EBI-030)
# B9: EBI-029 Fab variant S30P/I51T/S55G (Fab, V domains shown)
# VH: B5 VH with S30P
# VL: B5 VL
# B10: EBI-029 Fab variant A28V/I51T/S55G (Fab, V domains shown)
# VH: B5 VH with A28V
# VL: B5 VL
# B11: EBI-029 Fab (020 Fab) (Fab, V domains shown)
# VH: B5 VH with T51I, G55S
# VL: B5 VL
# notes: 018 Fab heavy chain with DKTHT added at the C-terminus; also called the 020 molecule; WT (EBI-029)
# B12: murine 64 antibody (hybridoma 64, subclone 64.58) (antibody, V domains shown)
# VH: QVQLQQSGAELVRPGTSVKVSCKASGYAFSNYLIEWVKQRPGQGLEWIGVITPGSGTINYNEKFKGKAVLTADKSSSTVYMQLSSLTSDDSAVYFCAKSRWDPLYYYALEYWGQGTSVTVSS
# VL: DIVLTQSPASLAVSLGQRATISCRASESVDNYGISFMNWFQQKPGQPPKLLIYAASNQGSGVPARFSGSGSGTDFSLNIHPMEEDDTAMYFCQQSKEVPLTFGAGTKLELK
# notes: Murine monoclonal from a hybridoma; also called m64
# Legend:
# [1] = biological target: T5, human IL-6 (human, UniProt P05231 30-212); test: cell-based or functional assay
# [2] = biological target: T1, rabbit IL-6; test: statement in the rabbit PK example; no assay named
# [3] = biological target: T5, human IL-6; test: cell-based or functional assay; remark: listed apart in the source
# [4] = biological target: hyper IL-6; test: cell-based or functional assay
# [5] = biological target: T5, human IL-6; test: yeast surface display of Fab, flow cytometry (APC-A = bound biotinylated IL-6, FITC-A = display) after overnight competition with 2 µM IL-6
# [6] = biological target: T1, rabbit IL-6; test: monovalent affinity, method not stated
# [7] = biological target: T2, dog IL-6; test: monovalent affinity, method not stated
# [8] = biological target: T3, rat IL-6; test: monovalent affinity, method not stated
# [9] = biological target: T4, mouse IL-6; test: monovalent affinity, method not stated
# [10] = biological target: T5, human IL-6; test: yeast system (yeast display, biotinylated human IL-6); original humanized h64, before affinity maturation; yeast system
# [11] = biological target: T5, human IL-6; test: functional epitope mapping by ELISA
binder,measurement,setting,value
B1,"IC50, HEK-Blue IL6 reporter cells, 20 pM IL-6",[1],47 pM
same,binding result,[2],no binding
B2,"IC50, cis-signaling, HEK-Blue IL6 cells, 20 pM free IL-6",[3],14.2 pM
same,"IC50, fold less than that of EBI-029, HEK-Blue IL6",[3],> 75 fold
same,"IC90, fold less than that of EBI-029, HEK-Blue IL6",[3],~350 fold
same,"fold decrease in IC50 compared with EBI-029, HEK-Blue IL6",[3],~50 fold
same,"fold decrease in IC90 compared with EBI-029, HEK-Blue IL6",[3],> 100 fold
same,"fold greater potency than tocilizumab, cis-signaling, HEK-Blue IL6 cells",[3],> 900 fold
same,"IC50, trans-signaling, HEK-Blue IL6 cells, 200 pM hyper IL-6",[4],32 pM
same,"IC50, HEK-Blue IL6 reporter cells, 20 pM IL-6",[1],0.6 pM
same,binding result,[2],no binding
B3,binding result,[2],no binding
B4,"IC50, fold less than that of EBI-029, HEK-Blue IL6 (EBI-030 produced in HEK cells)",[3],> 50 fold
same,"IC90, fold less than that of EBI-029, HEK-Blue IL6 (EBI-030 produced in HEK cells)",[3],~4000 fold
same,"fold decrease in IC50 compared with EBI-029, HEK-Blue IL6",[3],~50 fold
same,"fold decrease in IC90 compared with EBI-029, HEK-Blue IL6",[3],> 100 fold
same,"IC50, HEK-Blue IL6 reporter cells, 20 pM IL-6 (EBI-030 CHO, stable CHO pool)",[1],1.4 pM
same,"IC50, HEK-Blue IL6 reporter cells, 20 pM IL-6 (EBI-030 from HEK-6E cells)",[1],0.9 pM
same,binding result,[2],no binding
B5,Fold increase in binding/display over wt,[5],1.92 fold
B6,Kd,[6],> 1 µM
same,Kd,[7],> 1 µM
same,Kd,[8],> 1 µM
same,Kd,[9],> 1 µM
B7,Kd,[10],0.000343 µM
B8,Fold increase in binding/display over wt,[5],4 fold
B9,Fold increase in binding/display over wt,[5],2.52 fold
B10,Fold increase in binding/display over wt,[5],3.1 fold
B11,binding result,[2],no binding
B12,binding result,[11],binds
